B1: Myosin 7b MF2 (domain or fragment, human, UniProt Q6PIF6 1605-2116, looked up)
chain: KEKLHTLEEFSYEFFRAPEKDMVSMAVLPLARARGHLWAYSCEPLRQPLLKRVHANVDLWDIACQIFVAILRYMGDYPSRQAWPTLELTDQIFTLALQHPALQDEVYCQILKQLTHNSNRHSEERGWQLLWLCTGLFPPSKGLLPHAQKFIDTRRGKLLAPDCSRRIQKVLRTGPRKQPPHQVEVEAAEQNVSRICHKIYFPNDTSEMLEVVANTRVRDVCDSIATRLQLASWEGCSLFIKISDKVISQKEGDFFFDSLREVSDWVKKNKPQKEGAPVTLPYQVYFMRKLWLNISPGKDVNADTILHYHQELPKYLRGFHKCSREDAIHLAGLIYKAQFNNDRSQLASVPKILRELVPENLTRLMSSEEWKKSILLAYDKHKDKTVEEAKVAFLKWICRWPTFGSAFFEVKQTSEPSYPDVILIAINRHGVLLIHPKTKDLLTTYPFTKISSWSSGSTYFHMALGSLGRGSRLLCETSLGYKMDDLLTSYVQQLLSAMNKQRGSKAPALAST
notes: also called M7b MF2; Myo7b MF2; source: E. coli (BL21-AI, BL21 (DE3) Rosetta or BL21-Gold (DE3)), purified (Histrap, CaptoQ, gel filtration)
B2: Myosin 7a MF2 (domain or fragment, human, UniProt Q13402-1 1702-2215, looked up)
chain: TAEPEVRAKPYTLEEFSYDYFRPPPKHTLSRVMVSKARGKDRLWSHTREPLKQALLKKLLGSEELSQEACLAFIAVLKYMGDYPSKRTRSVNELTDQIFEGPLKAEPLKDEAYVQILKQLTDNHIRYSEERGWELLWLCTGLFPPSNILLPHVQRFLQSRKHCPLAIDCLQRLQKALRNGSRKYPPHLVEVEAIQHKTTQIFHKVYFPDDTDEAFEVESSTKAKDFCQNIATRLLLKSSEGFSLFVKIADKVLSVPENDFFFDFVRHLTDWIKKARPIKDGIVPSLTYQVFFMKKLWTTTVPGKDPMADSIFHYYQELPKYLRGYHKCTREEVLQLGALIYRVKFEEDKSYFPSIPKLLRELVPQDLIRQVSPDDWKRSIVAYFNKHAGKSKEEAKLAFLKLIFKWPTFGSAFFEVKQTTEPNFPEILLIAINKYGVSLIDPKTKDILTTHPFTKISNWSSGNTYFHITIGNLVRGSKLLCETSLGYKMDDLLTSYISQMLTAMSKQRGSRSGK
notes: Myosin 7a, human, C-terminal MyTH4-FERM domain (MF2), residues 1702-2215 of UniProt Q13402-1; Thrombin site of the vector replaced by an SSG linker; also called M7a MF2; Myo7a MF2; source: E. coli (BL21-AI, BL21 (DE3) Rosetta or BL21-Gold (DE3)), purified (Histrap, CaptoQ, gel filtration)

Common to all, as to settings: both partners purified
Assay [1] deals with T1, YFP-Full length (FL)-harmonin (harmonin-a1) (human, UniProt Q9Y6N9-1 1-552).
T1 construct: Harmonin-a1 (USH1C), human, residues 1-552 of UniProt Q9Y6N9-1; also called ^YFPFL (isoA); ^YFPFL; source: E. coli BL21 (DE3) Rosetta, purified (Glutathione Sepharose 4B, size-exclusion chromatography)
T1 sequence (looked up): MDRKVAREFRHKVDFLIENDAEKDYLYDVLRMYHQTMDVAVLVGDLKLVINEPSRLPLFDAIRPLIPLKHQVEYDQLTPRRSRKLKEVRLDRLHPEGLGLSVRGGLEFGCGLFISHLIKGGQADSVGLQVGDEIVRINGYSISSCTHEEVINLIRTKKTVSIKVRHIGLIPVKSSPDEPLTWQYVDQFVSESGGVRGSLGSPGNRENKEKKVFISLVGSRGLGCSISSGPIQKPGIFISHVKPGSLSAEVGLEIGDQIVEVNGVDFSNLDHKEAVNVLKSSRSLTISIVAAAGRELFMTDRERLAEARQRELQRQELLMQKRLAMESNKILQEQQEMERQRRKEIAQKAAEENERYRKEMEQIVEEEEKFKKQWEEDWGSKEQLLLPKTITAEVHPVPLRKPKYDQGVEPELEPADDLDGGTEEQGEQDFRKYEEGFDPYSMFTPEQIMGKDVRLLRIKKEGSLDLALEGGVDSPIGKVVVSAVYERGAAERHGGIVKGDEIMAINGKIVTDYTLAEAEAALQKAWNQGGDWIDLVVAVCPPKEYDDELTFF
The assay can be described thus: MST; as a1 but 150 mM NaCl (for FL-Harmonin-a); YFP-fused partner constant at 100 nM, non-fluorescent protein titrated.

For assay [2], the target named is T1, YFP-Full length (FL)-harmonin …. Described as above. The source holds these as a separate data set.
A further assay addresses T2, YFP-Myosin 7b MF2 (human, UniProt Q6PIF6 1605-2116).
T2 construct: Myosin 7b, human, MF2, residues 1605-2116 of UniProt Q6PIF6; pET14-YFP vector; also called ^YFPM7b MF2; source: E. coli (BL21-AI, BL21 (DE3) Rosetta or BL21-Gold (DE3)), purified (Histrap, CaptoQ, gel filtration)
T2 sequence (looked up): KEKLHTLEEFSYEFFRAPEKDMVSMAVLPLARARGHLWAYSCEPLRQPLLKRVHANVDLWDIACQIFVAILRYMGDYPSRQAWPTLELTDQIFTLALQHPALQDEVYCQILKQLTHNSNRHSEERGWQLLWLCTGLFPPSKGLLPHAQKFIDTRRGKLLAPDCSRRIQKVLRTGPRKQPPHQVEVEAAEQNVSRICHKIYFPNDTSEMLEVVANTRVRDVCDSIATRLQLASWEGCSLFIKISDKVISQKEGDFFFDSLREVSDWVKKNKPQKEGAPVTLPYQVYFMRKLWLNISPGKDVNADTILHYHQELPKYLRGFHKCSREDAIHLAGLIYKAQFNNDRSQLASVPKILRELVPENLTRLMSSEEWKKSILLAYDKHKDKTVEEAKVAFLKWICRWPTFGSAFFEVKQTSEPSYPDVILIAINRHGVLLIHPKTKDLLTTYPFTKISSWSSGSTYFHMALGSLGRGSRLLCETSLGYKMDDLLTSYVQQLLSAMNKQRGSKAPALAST
As to the kind of experiment: MST; YFP-fused partner constant at 100 nM, non-fluorescent protein titrated (16 two-fold dilutions); 20 mM Hepes pH 7.0, 100 mM NaCl, 1 mM EGTA, 0.5 mM TCEP, 0.05% Tween 20; Monolith NT.115.

For the assay “Myosin 7a MF2”, the target named is B2. Described as above.
In the assay “Myosin 7b MF2” the target is B1. The assay is described as above.

Turning to B1, the affinity in assay [1], expressed as Kd, was 2.05 ± 0.79 µM.
The molecule B2 returned a dissociation constant Kd in assay [1] of 2.36 µM.

B3: Harmonin NPDZ1.PDZ2 (domain or fragment, human, UniProt Q9Y6N9-1 1-301, looked up)
chain: MDRKVAREFRHKVDFLIENDAEKDYLYDVLRMYHQTMDVAVLVGDLKLVINEPSRLPLFDAIRPLIPLKHQVEYDQLTPRRSRKLKEVRLDRLHPEGLGLSVRGGLEFGCGLFISHLIKGGQADSVGLQVGDEIVRINGYSISSCTHEEVINLIRTKKTVSIKVRHIGLIPVKSSPDEPLTWQYVDQFVSESGGVRGSLGSPGNRENKEKKVFISLVGSRGLGCSISSGPIQKPGIFISHVKPGSLSAEVGLEIGDQIVEVNGVDFSNLDHKEAVNVLKSSRSLTISIVAAAGRELFMTDR
notes: Harmonin-a1 (USH1C), human, N-terminal domain, PDZ1 and PDZ2, residues 1-301 of UniProt Q9Y6N9-1; source: E. coli BL21 (DE3) Rosetta, purified (Glutathione Sepharose 4B, size-exclusion chromatography)
The molecule B3 displayed a Kd in assay [2] of 3.4 ± 0.1 µM.

B4: Harmonin-a PDZ3c D546R (domain or fragment, human, UniProt Q9Y6N9-1 428-552, looked up)
chain: QDFRKYEEGFDPYSMFTPEQIMGKDVRLLRIKKEGSLDLALEGGVDSPIGKVVVSAVYERGAAERHGGIVKGDEIMAINGKIVTDYTLAEAEAALQKAWNQGGDWIDLVVAVCPPKEYRDELTFF
notes: Harmonin-a1 (USH1C), human, residues 428-552 of UniProt Q9Y6N9-1; also called PDZ3c (isoA) D546R; source: E. coli BL21 (DE3) Rosetta, purified similarly as wild type
Consider B4, for which the Kd with YFP-Myosin 7b MF2 is more than 300 µM.

B5: YFP-Harmonin-a PDZ3c E469A-I476W (domain or fragment, human, UniProt Q9Y6N9-1 428-552, looked up)
chain: QDFRKYEEGFDPYSMFTPEQIMGKDVRLLRIKKEGSLDLALAGGVDSPWGKVVVSAVYERGAAERHGGIVKGDEIMAINGKIVTDYTLAEAEAALQKAWNQGGDWIDLVVAVCPPKEYDDELTFF
notes: Harmonin-a1 (USH1C), human, residues 428-552 of UniProt Q9Y6N9-1; also called ^YFPPDZ3c (isoA) E469A-I476W; source: E. coli BL21 (DE3) Rosetta, purified similarly as wild type
For the molecule B5, the Kd worked out at 70.4 ± 7.2 µM with Myosin 7a MF2 and 38.1 ± 4.9 µM with Myosin 7b MF2.

B6: YFP-Harmonin-a PDZ3c E469A (domain or fragment, human, UniProt Q9Y6N9-1 428-552, looked up)
chain: QDFRKYEEGFDPYSMFTPEQIMGKDVRLLRIKKEGSLDLALAGGVDSPIGKVVVSAVYERGAAERHGGIVKGDEIMAINGKIVTDYTLAEAEAALQKAWNQGGDWIDLVVAVCPPKEYDDELTFF
notes: Harmonin-a1 (USH1C), human, residues 428-552 of UniProt Q9Y6N9-1; also called ^YFPPDZ3c (isoA) E469A; PDZ3 E469A; source: E. coli BL21 (DE3) Rosetta, purified similarly as wild type
As for B6, the figures for the Kd in the assay with Myosin 7a MF2 and with Myosin 7b MF2 were 5.4 ± 1.5 µM and 6.11 ± 0.44 µM, respectively.

B7: YFP-Harmonin-a PDZ3c I476W (domain or fragment, human, UniProt Q9Y6N9-1 428-552, looked up)
chain: QDFRKYEEGFDPYSMFTPEQIMGKDVRLLRIKKEGSLDLALEGGVDSPWGKVVVSAVYERGAAERHGGIVKGDEIMAINGKIVTDYTLAEAEAALQKAWNQGGDWIDLVVAVCPPKEYDDELTFF
notes: Harmonin-a1 (USH1C), human, residues 428-552 of UniProt Q9Y6N9-1; also called ^YFPPDZ3c (isoA) I476W; source: E. coli BL21 (DE3) Rosetta, purified similarly as wild type
In the case of B7, the Kd in the assay with Myosin 7a MF2 was determined as 17.8 ± 1.1 µM; with Myosin 7b MF2, 18.1 ± 1.4 µM.

For orientation: Kd means the free concentration of one partner at which half of the binding sites on the other are occupied at equilibrium, for simple one-to-one binding.

The values are drawn from publication PMC5493754, “Myosin 7 and its adaptors link cadherins to actin” (Nature Communications, 2017).
